{
  "source": "the DeepSol protein solubility set",
  "data": [
    {"assay": "soluble on expression in E. coli; label from the status in PepcDB or PDB records", "values": [
      {"sequence": "MSEDVSKNLSETLFVKHKQAKETSALTQYMPTSKKILDDREQQEDRAWYRHLRRLQWAWQGLSPIEMEGVLSRIASSTHSRTHDDWLDTVMGYHSGNWTFEWIKLGMEHQRRANDLKGEDAADELFTASLCFSIAGYPHLKNDNLALQAQVLANKAYSEGAEKTQYTIKQIEVPYQKRKIIANLHLPRTDKQLPVVMVSAGLDSLQTDMWRLFRNHFAPKDIAMLTVDMPSVGHSSHWPLTEDSSCLHQAVLNELYSIPYVDHHKVGLVGFRFGGNAMVRLSFLEQEKIKACVALGAPVHDLFTSPKKLQKMPKMYLDMLASRLGKSAVDINSMAGQMMAWSLKVQGFLSSRKTKVPILALSLEGDPVSPYSDNQLVALFSHYGQAKKISSKTITKGYEQSLDLAIKWLEDELLR", "soluble on expression in E. coli": "not soluble"},
      {"sequence": "MGSDKIHHHHHHMSELTQLFPQPLWQWFAQICAIPHPSKHEQALSLHIQQWAKDKGLSVIEDKVGNLIIKKPAFAGMEDRKKVVLQAHLDMVPQKNADKVHNFETDPIEAYIDGDWVKAKGTTLGSDNGIGMASALAILGSDSIKHGPLEVLLTIDEEAGMTGAFGLEAGMLEAEILINTDSEQEGEIYMGCAGGVDGQISLPMSWQSPEQSNSSFNLTLSGLKGGHSGVNIHLGRGNANKLLARFLFDYADDLALELVSFSGGSLRNAIPREASISFMLPPENLTALNQAIADFQALVREELAIADPGMLLTLVEVPAHTKVMGEDSQNTLIDLLHVCPNGVIRMSDEVEGVTETSLNVGVISTHDDSVEILCLIRSLIDSGRSEVTGMITALTHLAGADVEFSGAYPGWKPDTSSPVMAIVRETYNDIYHKDPTVMVIHAGLECGLFKEPYPAMDMVSIGPTIRYPHSPDEMVNITTVGQYWQLLLAVLERIPVRG", "soluble on expression in E. coli": "not soluble"},
      {"sequence": "MSHHHHHHSMSKNILDMRNTVQIGIVVRDIEESLQNYAEFFGVEKPQWFWTDDYSKAHTKFNGRPTKARAKLAFFELGPLQLELIEPDENPSTWREFLDKNGEGIHHIAFVVKDMDRKVEELYRKGMKVIQKGDFEGGRYAYIDTLRALKVMIELLENY", "soluble on expression in E. coli": "soluble"},
      {"sequence": "MSDHDRDFDVVVVGGGHNGLVAAAYLARAGLRVRLLERLAQTGGAAVSIQAFDGVEVALSRYSYLVSLLPSRIVADLGAPVRLARRPFSSYTPAPATAGRSGLLIGPTGEPRAAHLAAIGAAPDAHGFAAFYRRCRLVTARLWPTLIEPLRTREQARRDIVEYGGHEAAAAWQAMVDEPIGHAIAGAVANDLLRGVIATDALIGTFARMHEPSLMQNICFLYHLVGGGTGVWHVPIGGMGSVTSALATAAARHGAEIVTGADVFALDPDGTVRYHSDGSDGAEHLVRGRFVLVGVTPAVLASLLGEPVAALAPGAQVKVNMVVRRLPRLRDDSVTPQQAFAGTFHVNETWSQLDAAYSQAASGRLPDPLPCEAYCHSLTDPSILSARLRDAGAQTLTVFGLHTPHSVFGDTEGLAERLTAAVLASLNSVLAEPIQDVLWTDAQSKPCIETTTTLDLQRTLGMTGGNIFHGALSWPFADNDDPLDTPARQWGVATDHERIMLCGSGARRGGAVSGIGGHNAAMAVLACLASRRKSPLEHHHHHH", "soluble on expression in E. coli": "not soluble"},
      {"sequence": "MAQFVYTMHRVGKVVPPKRHILKNISLSFFPGAKIGVLGLNGAGKSTLLRIMAGIDKDIEGEARPQPDIKIGYLPQEPQLNPEHTVRESIEEAVSEVVNALKRLDEVYALYADPDADFDKLAAEQGRLEEIIQAHDGHNLNVQLERAADALRLPDWDAKIANLSGGERRRVALCRLLLEKPDMLLLDEPTNHLDAESVAWLERFLHDFEGTVVAITHDRYFLDNVAGWILELDRGEGIPWEGNYSSWLEQKDQRLAQEASQEAARRKSIEKELEWVRQGTKGRQSKGKARLARFEELNSTEYQKRNETNELFIPPGPRLGDKVLEVSNLRKSYGDRLLIDDLSFSIPKGAIVGIIGPNGAGKSTLFRMISGQEQPDSGTITLGETVKLASVDQFRDSMDNSKTVWEEVSGGLDIMKIGNTEMPSRAYVGRFNFKGVDQGKRVGELSGGERGRLHLAKLLQVGGNMLLLDEPTNDLDIETLRALENALLEFPGCAMVISHDRWFLDRIATHILDYQDEGKVEFFEGNFTEYEEYKKRTLGADALEPKRIKYKRIAK", "soluble on expression in E. coli": "soluble"},
      {"sequence": "DVNFILTFPTGYGKTTLSLEIVRMIDLKPTQNFSRLIHVVPTRSLAKDIQNSACERGLGFAVQYSFTPSHIKSPLFLAKFIITTYDSFLLNLYKASIGEPFSYHGHYDLPRFGIYTSLVHFDEFHLMNEGNSWTSLLGAVRHLSKVGVNMILSSATPSKSVEEELIRMMENRKVVRLAVVNEYGESVKNRNCV", "soluble on expression in E. coli": "not soluble"},
      {"sequence": "MGSDKIHHHHHHMTIDDLKSFMLVCRLHSFSTAAVELSMTQSALSKRLQAIQQEVGSEFISTENRRQILITESGKVFYRYAQRIVSSYDELEQELKAYRELKKGNLQIGRVPVMSQYGLTKIINIFERSYPQIDIHLNELEGNDLLMVLKAGEIDAGIIRDIQTKTIDNNHFNSYTLDRDELKVVLPANDSLNNKKRISIEELANYQVISLESGSGIYEKMVEIYNNAGIPLNVGFKTTHIETIMGMIKNSDQITFLFKKSAMPFMNKQLVMLSLDQPIYSNLELICPRENQHKPALTKFIEYMKKYTSEPVESYP", "soluble on expression in E. coli": "not soluble"},
      {"sequence": "MLASAILPVVSFAESDPLDVLLKKLEEKGVITKEEAKEVKKVAKKHPHLKVKIRLQPRIDFGDIYKENNDYKSRSDFYFRRVRLEISKEWKNIPFGKKLKINFTLHSDKGERDYDYKKGEKEHHSFDPKVKYAYADWTFVDEFAVRIGKNKIPYSRVSLTSSSRQLLIERPYVTEDAKKWLGDYDSNQIMFHGKVAGGIFRYMLSIWDGSTIESKNKTGGTVKADTSLGDAYAIRLEFSPPGFVEKKKDDTGIGEKNKGDVISVGLNYAKNSDFDITDKNIKNEEATVWGGDIFGRFHLGPGALVAQAEYVKMKYDKLDLEEKGYYIQAGYLIPTPYGKFEPAARYEHFKQEDKKNDVTKHKKDIITLGFNHYIKGHKIKWGYNVLFIDNKEKDEKDQTVHQIQMQFYF", "soluble on expression in E. coli": "not soluble"},
      {"sequence": "MSLAEIAYITAKADLPFWDTVGKGVKAVAEANGYAFSELDSKLSAEMQLNNVRQAIDRRVAGIVISPTNSKSAEEALILARRAKIPVAIADIGASGGDYVSFVKSDNYRGAYDVGTELAKAMKAQNWASGAYGMVTIELSRKNGQDRTNGFRDAMKDAGFPREIVLRQMKDYSAEETYRYVKEMLAAHPGLRGFFIETDQPVAGALRAIREAGKEKQLLLVSFDAMPDVVRLLKSGALVAVGMQQPYLMGSSAAGALVSRLRGHPPAKEILVPVLVATGRNVDQLMPVAARTVFGKPLKEGHHHHHH", "soluble on expression in E. coli": "soluble"},
      {"sequence": "MTTTTTVRQCRVTRIGSTELPPRVENAIQFLDDQCYEKLGGTVVMKWFGNRVPPEDHRQLSSFCHVVNLTKYDDDPKSRYHKDDIECACGTSSNLFFLKKFNEAVEKYPCDDDETITKAPTTEPSDDLWCWQLRSRSFASSPPPPRMKNAIQLLDDKCYAKLGGTTVMKWFGNVVTPEGKVCFVINLTDSKMKLYKKEIVCACGRQSYVFFLEGLILMREKYSCNDKTTTKSTRTTPSTTTAKQCYVRRTGSSVSPPRETDAIPMLDDQCYEKMGGTSVMDRFGNREPPKSVYEYSEFCLLVDVTLNGPAMETYQSDIECVCGISSLEFFLEKFEEAIKKYPCDNDGATEAATTKPTTTTVTTTTVPPKTDPPRTEPPKTEPPTTEPPKIEPPRTEPPKTEPPPTEPPKTEPPKTTPPKTEPPTTEPPNIPYCWQQQSRLFAPSPPPPRVNNTMPLIEDKCYAKLGDTLVMAWFGNRAPPKNFTEVLDFCTVAALTYNNESAVFSVFKKDIQCNCDKLSFSRFLKKLSEAMEKYQCNNVWTRTEAPETVTTRTEPPRTEPPRTIPPRTEAPRTEPPRTEPPKTEAPRTVRPKTEAPMTVPPRTEPPMTEAPRTEVPMTEPPKTEPPRTAPPRTEVSMTLPPETVPPNTEAPRTEVPMTVPPRTEPPKTEAPRTVPPKTEAPMTEVPMTGPSRTEVPMTEPPKTEQPRTAPPRTEVSMTLPPETVPPKTEAPRTEVPMTGPSRTEVPMTVTPETGLSSTVTSKTEPPKTTTEKRITPRTEVPKTVPPRTGPPMTVPPGTEAPTTEAPMTITPRTEQLRTEQLRTDQSKTVTPKTKITVWPTDYRGPI", "soluble on expression in E. coli": "not soluble"},
      {"sequence": "VEGRFQLVAPYEPQGDQPQAIAKLVDGLRRGVKHQTLLGATGTGKTFTISNVIAQVNKPTLVIAHNKTLAGQLYSELKEFFPHNAVEYFVSYYDYYQPEAYVPQTDTYIEKDAKINDEIDKLRHSATSALFERRDVIIVASVSCIYGLGSPEEYRELVVSLRVGMEIERNALLRRLVDIQYDRNDIDFRGTFRVRGDVVEIFPASRDEHCIRVEFFGDEIERIRAEVDALTGKVLGEREHVAIFPASHFVTREEKMRLAIQNIEQELEERLAELRAQGKLLEAQRLEQRTRYDLEMMREMGFCSGIENYSRHLALRPPGSTPYTLLDYFPDDFLIIVDESHVTLPQLRGMYNGDRARKQVLVDHGFRLPSALDNRPLTFEEFEQKINQIIYVSATPGPYELEHSPGVVEQIIRPTGLLDPTIDVRPTKGQIDDLIGEIRERVERNERTLVTTLTKKMAEDLTDYLKEAGIKVAYLHSEIKTLERIEIIRDLRLGKYDVLVGINLLREGLDIPEVSLVAILDADKEGFLRSERSLIQTIGRAARNANGHVIMYADTITKSMEIAIQETKRRRAIQEEYNRKHGIVPRTVKKEIRDVIRATYAAEETEMYEAKPAAAMTKQEREELIRTLEAEMKEAAKALDFERAAQLRDIIFELKAEG", "soluble on expression in E. coli": "soluble"},
      {"sequence": "RSKTVILAKNLPAGTLAAEIQETFSRFGSLGRVLLPEGGITAIVEFLEPLEARKAFRHLAYSKFHHVPLYLEWAPIGVFGAAPQKKDSQHEQPAEKAE", "soluble on expression in E. coli": "soluble"},
      {"sequence": "MGHHHHHHSSGLVPRGSATERQDRNLLYEHAREGYSALPLLDMESLCAYPEDAARALDLRKGELRSKDLPGIISTWQELRQLREQIRSLEEEKEAVTEAVRALVVNQDNSQVQQDPQYQSLRARGREIRKQLTLLYPKEAQLEEQFYLRALRLPNQTHPDVPVGDESQARVLHVVGDKPAFSFQPRGHLEIAEKLDIIRQKRLSHVSGHRSYYLRGAGALLQHGLVNFTLNKLIHRGFTPMTVPDLLRGVVFEGCGMTPNAKPSQIYNIDPSRFEDLNLAGTAEVGLAGYFMDHSVAFRDLPIRMVCSSTCYRAETDTGKEPWGLYRVHHFTKVEMFGVTGPGLEQSSELLEEFLSLQMEILTELGLHFRVLDMPTQELGLPAYRKFDIEAWMPGRGRFGEVTSASNCTDFQSRRLHIMFQTEAGELQFAHTVNATGCAVPRLLIALLESYQQKDGSVLVPPALQPYLGTDRITTPTHVPLQYIGPNQPQKPRLPGQPASS", "soluble on expression in E. coli": "soluble"},
      {"sequence": "MSLKYVKSLFEIHPDIATKFRIKNQYLKTGYMNVLLCLIETVRRSPKEISKNDLADAYVALESLTDHGFKLDWLKKKLDQVTQKKEKEAAGETRMHEIGEELKDLKLKCSDLEAQLDKVKWKCSDLEAQLVKEKADVLAAIAPLGSSDDGVFDDFFEKQYTGFVRKYQIGASQTWFLLLNSRPKIVDFWSRANSKALLKARFLKLLAYAMCQNQKAWMSTGFMFYLPKRLLAFPKGNDTKSDHLSLYLDVAESESLPCGWRRHAQFSFTIVNHIPEKCSQRKDGEGSSFYEEIQLGHQEFLLFAIAENILASVRDARLQEGHHHHHH", "soluble on expression in E. coli": "not soluble"},
      {"sequence": "MKLTKTLLTTALFGASIFSFQSTAWADTPEQQFQQGLTAYEQSDYQTAFKLWLPMAEQGYAQAQGGLGMMYERGLGVKQDDFKAVNWYRKAAEQGDADAQLNLGAMYAIGHGVKQDGVEAVKWFRKAAEQGNAKAQNGLGMMYRGRLGIKQDYFKAVKWYRKAAEQGYGGAQVMLGFSYLSGKGVQVNKSLAKEWFGKACDNGEQVGCEYYSKLNRGER", "soluble on expression in E. coli": "not soluble"}
    ]}
  ]
}
